In patent US20200181597A1, “Composition and Application of Arginine-depleting Agents for Cancer, Obesity, Metabolic Disorders, and Related Complications and Comorbidities” (THE HONG KONG POLYTECHNIC UNIVERSITY, priority 2018, published 2020):

What was measured:
[1] = LFD-fed mice treated for 8 months: anti-drug antibody and safety; type: in vivo, C57BL/6J male mice
Method: FIG. 56 illustrates that C57BL/6J male mice fed a LFD and received an intraperitoneal injection of 500U N-ABD094-rhArg (SEQ ID NO: 50) [LFD(rhArg) group] once a week for 8 months starting from 5 week old had developed non-neutralizing anti-drug antibody. (A) Using an ELISA assay, anti-rhArg antibodies, with an average antibody titer of 10^8, could be detected in the plasma of LFD-fed mice treated with N-ABD094-rhArg. (B) The plasma was incubated with 1,000U/mL N-ABD094-rhArg (rhArg*) for 1 hr followed by measurement of arginase activity. There was no reduction in arginase activity, showing that the antibodies generated in the animal against the drug were not neutralizing antibodies. Data are expressed as mean±SEM, n=3 for each group.
Generation of neutralizing antibodies may affect the pharmacodynamics, pharmacokinetic, stability and efficacy of a drug. To determine the immunogenic response, 8 week old C57BL/6J male mice fed a LFD received i.p. injection of 500U of N-ABD094-rhArg (SEQ ID NO: 50), or saline as vehicle control, at 7-day intervals for 8 months.
To assess the safety of long-term use, serum and urine samples from LFD-fed mice treated with N-ABD094-rhArg (SEQ ID NO: 50) for 8 months were collected for analysis of ALT and AST, which are commonly used biomarkers of liver damage, and serum creatinine and urine albumin/creatinine ratio for assessing kidney functions.

[2] = Enzyme kinetics after metal ion substitution; type: biochemical
Method: Wild type arginase typically includes a Mn^2+ metal ion (D′Antonio & Christianson, 2011, Biochemistry, 50:8018-27). […] Purified N-ABD094-rhArg (SEQ ID NO: 50) in 20 mM Tris-HCl buffer (pH 7.4) was mixed with 20 mM of different divalent metal ions (Mn^2+, Ni^2+ or Co^2+), and was incubated at 52-55° C. for 15-60 min and then buffer exchanged with PBS buffer (pH 7.4).
Samples were subjected to enzyme activity and enzyme kinetic studies to determine the specific activity and catalytic efficiency (kcat/Km). Samples were applied to inductively coupled plasma atomic emission spectroscopy (ICP-OES, Agilent 700 Series ICP optical emission spectrometer) for quantitative analysis of metal content.

[3] = Prevention of HFD-induced obesity, female mice; type: in vivo, C57BL/6J female mice; settings: 300U weekly
From the text: FIG. 21 illustrates that concurrent treatment with 300U N-ABD094-rhArg (SEQ ID, NO: 50) [HFD(rhArg) group] once a week could effectively prevent HFD-induced obesity in C57BL/6J female mice. (A) Bodyweight of mice fed a HFD from 8 week old for 12 weeks, and currently treated with N-ABD094-rhArg or vehicle. Vehicle-treated female mice fed a LFD served as the lean control [LFD(vehicle) group]. (B) Weight of fat pad at main visceral (perigonadal, perirenal and mesenteric) and subcutaneous (inguinal) depots. *P<0.05, one-way ANOVA followed by Fisher's LSD. Data are expressed as mean±SEM, n=5 for each group.
FIG. 22 illustrates that concurrent treatment with 300U N-ABD094-rhArg (SEQ ID NO: 50) [HFD(rhArg) group] once a week could effectively prevent HFD-induced insulin resistance and glucose intolerance in C57BL/6J female mice. (A) Insulin tolerance test (ITT) conducted at 7 week after feeding a HFD. (B) Glucose tolerance test (GTT) conducted at 11 week after feeding a HFD. ITT and GTT results are expressed as area under the curve (AUC). *P<0.05, one-way ANOVA followed by Fisher's LSD. Data are expressed as mean±SEM, n=5 for each group.
After confirming the anti-obesity effect of N-ABD094-rhArg (SEQ ID NO: 50) on male mice, the effect of N-ABD094-rhArg (SEQ ID NO: 50) on female mice (n=5 in each group) was studied to determine if there was any sex difference.

plasma arginine = assay: Plasma arginine after single i.p. 500U N-ABD094-rhArg (LC-MS/MS); type: in vivo, C57BL/6J male mice
Method: Each time point represents mean±SEM of 5 mice.
Fifty C57BL/6J male mice (10-12 weeks of age) were used in this study. A single dose of 500U N-ABD094-rhArg (SEQ ID NO: 50) was administered to the mouse via i.p. injection. Blood samples were collected from the saphenous vein using heparinized capillary tubes, and were centrifuged at 800×g to obtain plasma.
Following injection, serum was collected at Hour 2, Hour 4, Hour 8, Hour 16, Hour 24 (Day 1) and from Day 2 to Day 12 at 24-hour intervals, and from Day 12 to Day 30 at 72-hour intervals. To strike a balance between the number of animals used and to minimize the effect on results of pharmacokinetics and pharmacodynamics study caused by removal of N-ABD094-rhArg (SEQ ID NO: 50) from the mouse as a consequence of blood collection, mice were divided into 10 groups, with n=5 in each group, and subjected to blood collection at the indicated time-point(s) shown in brackets: Group 1 (Hour 2), Group 2 (Hour 4), Group 3 (Hour 8), Group 4 (Hour 16), Group 5 (Hour 24), Group 6 (Day 2, Day 7, Day 12), Group 7 (Day 3, Day 8, Day 18), Group 8 (Day 4, Day 9, Day 21), Group 9 (Day 5, Day 10, Day 15, Day 24), Group 10 (Day 0, Day 6, Day 11, Day 27, Day 30).

B1: N-ABD094-rhArg: albumin binding domain ABD094 fused N-terminally to recombinant human arginase I, SEQ ID NO: 50 (protein)
chain: MHHHHHHDEAVDANSLAEAKEAANAELDSYGVSDFYKRLIDKAKTVEGVEALKDAILAALPSGSNNNNNNGSGGMSAKSRTIGIIGAPFSKGQPRGGVEEGPTVLRKAGLLEKLKEQECDVKDYGDLPFADIPNDSPFQIVKNPRSVGKASEQLAGKVAEVKKNGRISLVLGGDHSLAIGSISGHARVHPDLGVIWVDAHTDINTPLTTTSGNLHGQPVSFLLKELKGKIPDVPGFSWVTPCISAKDIVYIGLRDVDPGEHYILKTLGIKYFSMTEVDRLGIGKVMEETLSYLLGRKKRPIHLSFDVDGLDPSFTPATGTPVVGGLTYREGLYITEEIYKTGLLSGLDIMEVNPSLGKTPEEVTRTVNTAVAITLACFGLAREGNHKPIDYLNPPK
modifications: Mn2+; N-ABD094-rhArg, Synthesized in the Lab
For B1, the “average anti-rhArg antibody titer in plasma (ELISA)” value ([1]; 500U i.p. weekly for 8 months) was 10^8, the “serum ALT, AST, creatinine and urine albumin/creatinine ratio vs vehicle” value ([1]; 500U weekly for 8 months) was “did not show any significant differences” and the “plasma arginine concentrations throughout the study period” value ([1]; 500U weekly for 8 months, Biochrom 30 detection limit) was less than 3 µM. For the same molecule, the “vascular reactivity of isolated arteries (phenylephrine, acetylcholine, sodium nitroprusside) vs vehicle” value ([1]; 500U weekly for 8 months, wire myography) was “no significant differences”, the “effect of anti-drug antibodies on arginase activity” value ([1]; plasma incubated with 1,000U/mL drug for 1 hr) was “did not have neutralizing effects” and the Km [2] was 1.37 to 1.89 mM. For the same molecule, the kcat [2] was 82 to 98 s⁻¹, the “protection from weight gain and excessive accumulation of WAT” value ([3]; 12 weeks) was “similarly effective” and the “insulin sensitivity (ITT) and glucose tolerance (GTT)” value ([3]; ITT week 7, GTT week 11) was “improve”. For the same molecule, the “plasma arginine concentration reached within 2 hour after injection” value (plasma arginine; 500U i.p.) was 1 µM, the “Plasma arginine concentrations (Mean of 5 mice ± SEM)” value (plasma arginine; Day 2 after i.p. 500U) was 0.944 ± 0.007 µM and the “Plasma arginine concentrations (Mean of 5 mice ± SEM)” value (plasma arginine; Day 3 after i.p. 500U) was 0.965 ± 0.008 µM. The “Plasma arginine concentrations (Mean of 5 mice ± SEM)” value (plasma arginine; Day 4 after i.p. 500U) was 0.535 ± 0.121 µM, the “Plasma arginine concentrations (Mean of 5 mice ± SEM)” value (plasma arginine; Day 5 after i.p. 500U) was 0.681 ± 0.043 µM and the “Plasma arginine concentrations (Mean of 5 mice ± SEM)” value (plasma arginine; Day 6 after i.p. 500U) was 0.896 ± 0.089 µM. For the same molecule, the “Plasma arginine concentrations (Mean of 5 mice ± SEM)” value (plasma arginine; Day 7 after i.p. 500U) was 0.792 ± 0.135 µM, the “Plasma arginine concentrations (Mean of 5 mice ± SEM)” value (plasma arginine; Day 8 after i.p. 500U) was 0.916 ± 0.079 µM and the “Plasma arginine concentrations (Mean of 5 mice ± SEM)” value (plasma arginine; Day 9 after i.p. 500U) was 1.224 ± 0.178 µM. For the same molecule, the “Plasma arginine concentrations (Mean of 5 mice ± SEM)” value (plasma arginine; Day 10 after i.p. 500U) was 0.721 ± 0.054 µM, the “Plasma arginine concentrations (Mean of 5 mice ± SEM)” value (plasma arginine; Day 11 after i.p. 500U) was 3.828 ± 1.511 µM and the “Plasma arginine concentrations (Mean of 5 mice ± SEM)” value (plasma arginine; Day 12 after i.p. 500U) was 7.607 ± 2.325 µM. For the same molecule, the “Plasma arginine concentrations (Mean of 5 mice ± SEM)” value (plasma arginine; Day 15 after i.p. 500U) was 31.283 ± 4.569 µM, the “Plasma arginine concentrations (Mean of 5 mice ± SEM)” value (plasma arginine; Day 18 after i.p. 500U) was 48.648 ± 3.989 µM and the “Plasma arginine concentrations (Mean of 5 mice ± SEM)” value (plasma arginine; Day 21 after i.p. 500U) was 73.55 ± 3.76 µM. The “Plasma arginine concentrations (Mean of 5 mice ± SEM)” value (plasma arginine; Day 24 after i.p. 500U) was 76.07 ± 4.92 µM, the “Plasma arginine concentrations (Mean of 5 mice ± SEM)” value (plasma arginine; Day 27 after i.p. 500U) was 111.09 ± 6.21 µM and the “Plasma arginine concentrations (Mean of 5 mice ± SEM)” value (plasma arginine; Day 30 after i.p. 500U) was 110.91 ± 3.81 µM. The “Plasma arginine concentrations (Mean of 5 mice ± SEM)” value (plasma arginine; Hour 2 after i.p. 500U) was 1.007 ± 0.013 µM, the “Plasma arginine concentrations (Mean of 5 mice ± SEM)” value (plasma arginine; Hour 4 after i.p. 500U) was 0.934 ± 0.021 µM and the “Plasma arginine concentrations (Mean of 5 mice ± SEM)” value (plasma arginine; Hour 8 after i.p. 500U) was 0.912 ± 0.006 µM. The “Plasma arginine concentrations (Mean of 5 mice ± SEM)” value (plasma arginine; Hour 16 after i.p. 500U) was 0.943 ± 0.010 µM and the “Plasma arginine concentrations (Mean of 5 mice ± SEM)” value (plasma arginine; Hour 24 after i.p. 500U) was 0.934 ± 0.007 µM.
